According to publication PMC8248744, “High-resolution genetic mapping reveals cis-regulatory and copy number variation in loci associated with cytochrome P450-mediated detoxification in a generalist arthropod pest” (PLoS Genetics, 2021):

Substrate: COC(c1ccc(NC(=O)c2c(C)nn(C)c2C)cc1CC(C)C)(C(F)(F)F)C(F)(F)F
Experiment: HPLC-UV substrate depletion, recombinant membranes
Format: biochemical, Tetranychus urticae
Settings: NADPH-regenerating system, 0.2 M Tris-HCl pH 7.4, 0.25 mM MgCl2, 2.5% acetonitrile, 30°C, N-demethylation at pyrazole, co-expressed with TuCPR

B1: CYP392A16 (Tetranychus urticae) (protein)
chain: MIEVIHSGSIPDGHFTVSTIMFLISNLLSSQPLVNSLIGLALFWLVKYLFNTIQRIRSLPAGPWGLPIVGYLPFIKDDIYLVFDQLSKKYGPVYSLKLGSFDVVLVCDWPHMKDAVANDALLARQHEVFFPGVVEGRSFAEMSGDPWREHRRLSLHILRDVGLGKSTIETLVKEEVDQFLSALENNGKPADFEKCISRSVTNNVSILLFGHKYERDDPTAIAISSANTEVGRSFSFAGVVAFLPWLAELVFKFELFNVTRLKKCFQIVDTHIQDEIVKHQEKNSQEVVDYIDGYLVEKKNREKQNKVDDNFTIEILRRNAGAFYGAGTETVSSTMEWIMVYLVKYPEYQDKIRSEIADVIGFERKPDYVDRNRMPFTMAFIHEIHRIGSVVANNLLRRAASDTKIGNYNIPKDTLVILNFWSVNRDPKLWPNPDEFDPTRFLTEDGSKVVKPPHLIPFSAGKRNCPGESLANVELFLYLVCMLQKYHVKVKPGTKISTEAIFGLSRRPSQLPTFIFEKISNSN
notes: E. coli BL21STAR membrane fraction; with NADPH--cytochrome P450 reductase
For B1, which Km is on record?
The Km was 17.79 (± 3.29 SE) μM.
